Data on 18 molecules can be found in patent EP4722253A1 (dated 2026).

Sequences and labels used below:
T1: FcγRIIa (UniProt P12318 34-217)
T1 sequence (looked up): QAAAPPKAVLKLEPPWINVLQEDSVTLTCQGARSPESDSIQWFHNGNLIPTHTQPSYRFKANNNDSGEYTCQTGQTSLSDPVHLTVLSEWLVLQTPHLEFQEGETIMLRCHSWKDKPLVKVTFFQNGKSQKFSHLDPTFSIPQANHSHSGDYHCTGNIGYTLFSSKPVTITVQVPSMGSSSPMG

B1: Q-SBL-101 (bispecific antibody, human IgG1, kappa)
heavy 1: not shown
heavy 2: EVQLVESGGGLVQPGGSLRLSCAASGYTFTNYGMNWVRQAPGKGLEWVGWINTYTGEPTYAADFKRRFTFSLDTSKSTAYLQMNSLRAEDTAVYYCAKYPHYYGSSHWYFDVWGQGTLVTVSSASTKGPSVFPLAPSSKSTSGGTAALGCLVKDYFPEPVTVSWNSGALTSGVHTFPAVLQSSGLYSLSSVVTVPSSSLGTQTYICNVNHKPSNTKVDKKVEPKSCDKTHTCPPCPAPELLGGPSVFLFPPKPKDTLMISRTPEVTCVVVDVSHEDPEVKFNWYVDGVEVHNAKTKPREEQYNSTYRVVSVLTVLHQDWLNGKEYKCKVSNKALPAPIEKTISKAKGQPREPQVCTLPPSRREMTKNQVSLWCLVKGFYPSDIAVEWESNGQPENNYKTTPPVLDSDGSFFLYSKLTVDKSRWQQGNVFSCSVMHEALHNHYTQKSLSLSPGK
light 1: not shown
light 2: not shown
notes: copies: 1 + 1 + 1 + 1
B2: Q-SBL-116 (bispecific antibody, human IgG1, kappa)
heavy 1: not shown
heavy 2: B1 heavy 2 with R362K
light 1: not shown
light 2: not shown
notes: copies: 1 + 1 + 1 + 1
B3: Q-SBL-131 (bispecific antibody, human IgG1, kappa)
heavy 1: not shown
heavy 2: B1 heavy 2 with R362E, D405F
light 1: not shown
light 2: not shown
notes: copies: 1 + 1 + 1 + 1
B4: Q-SBL-115 (bispecific antibody, human IgG1, kappa)
heavy 1: not shown
heavy 2: B1 heavy 2 with R362E, E363R
light 1: not shown
light 2: not shown
notes: copies: 1 + 1 + 1 + 1
B5: Q-SBL-117 (bispecific antibody, human IgG1, kappa)
heavy 1: not shown
heavy 2: B1 heavy 2 with R362K
light 1: not shown
light 2: not shown
notes: copies: 1 + 1 + 1 + 1
B6: Q-SBL-137 (bispecific antibody, human IgG1, kappa)
heavy 1: not shown
heavy 2: B1 heavy 2 with R362E, K415S
light 1: not shown
light 2: not shown
notes: copies: 1 + 1 + 1 + 1
B7: Q-SBL-130 (bispecific antibody, human IgG1, kappa)
heavy 1: not shown
heavy 2: B1 heavy 2 with R362E, D405F
light 1: not shown
light 2: not shown
notes: copies: 1 + 1 + 1 + 1
B8: Q-SBL-114 (bispecific antibody, human IgG1, kappa)
heavy 1: not shown
heavy 2: B1 heavy 2 with R362E, D405H
light 1: not shown
light 2: not shown
notes: copies: 1 + 1 + 1 + 1
B9: Q-SBL-109 (bispecific antibody, human IgG1, kappa)
heavy 1: not shown
heavy 2: B1 heavy 2
light 1: not shown
light 2: not shown
notes: copies: 1 + 1 + 1 + 1
B10: Q-SBL-127 (bispecific antibody, human IgG1, kappa)
heavy 1: not shown
heavy 2: B1 heavy 2 with R362E, D405F
light 1: not shown
light 2: not shown
notes: copies: 1 + 1 + 1 + 1
B11: Q-SBL-103 (bispecific antibody, human IgG1, kappa)
heavy 1: not shown
heavy 2: B1 heavy 2 with R362E, E363R
light 1: not shown
light 2: not shown
notes: copies: 1 + 1 + 1 + 1
B12: Q-SBL-111 (bispecific antibody, human IgG1, kappa)
heavy 1: not shown
heavy 2: B1 heavy 2
light 1: not shown
light 2: not shown
notes: copies: 1 + 1 + 1 + 1
B13: Q-SBL-102 (bispecific antibody, human IgG1, kappa)
heavy 1: not shown
heavy 2: B1 heavy 2 with R362E, D405H
light 1: not shown
light 2: not shown
notes: copies: 1 + 1 + 1 + 1
B14: Q-SBL-104 (bispecific antibody, human IgG1, kappa)
heavy 1: not shown
heavy 2: B1 heavy 2 with D405H
light 1: not shown
light 2: not shown
notes: copies: 1 + 1 + 1 + 1
B15: Q-SBL-135 (bispecific antibody, human IgG1, kappa)
heavy 1: not shown
heavy 2: B1 heavy 2 with R362E, K415V
light 1: not shown
light 2: not shown
notes: copies: 1 + 1 + 1 + 1
B16: Q-SBL-105 (bispecific antibody, human IgG1, kappa)
heavy 1: not shown
heavy 2: B1 heavy 2 with E363R
light 1: not shown
light 2: not shown
notes: copies: 1 + 1 + 1 + 1
B17: Q-SBL-136 (bispecific antibody, human IgG1, kappa)
heavy 1: not shown
heavy 2: B1 heavy 2 with R362E, K415T
light 1: not shown
light 2: not shown
notes: copies: 1 + 1 + 1 + 1
B18: Q-SBL-106 (bispecific antibody, human IgG1, kappa)
heavy 1: not shown
heavy 2: B1 heavy 2 with R362E, E363R, D405H
light 1: not shown
light 2: not shown
notes: copies: 1 + 1 + 1 + 1

Positions count from the first letter of the chain named.

One assay deals with T2, C1q, complement component 1q (UniProt P02745 23-245; P02746 28-253; P02747 29-245).
T2 construct: also called Clq
T2 sequence (P02745 23-245 limits assumed, chain 1 of 3): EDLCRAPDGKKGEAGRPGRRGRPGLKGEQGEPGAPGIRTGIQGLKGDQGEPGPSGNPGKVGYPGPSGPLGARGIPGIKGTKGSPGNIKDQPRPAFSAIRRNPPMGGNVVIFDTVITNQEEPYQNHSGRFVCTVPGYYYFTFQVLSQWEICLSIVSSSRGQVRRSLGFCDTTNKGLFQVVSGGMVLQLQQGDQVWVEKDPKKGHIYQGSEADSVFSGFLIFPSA
T2 sequence (P02746 28-253 limits assumed, chain 2 of 3): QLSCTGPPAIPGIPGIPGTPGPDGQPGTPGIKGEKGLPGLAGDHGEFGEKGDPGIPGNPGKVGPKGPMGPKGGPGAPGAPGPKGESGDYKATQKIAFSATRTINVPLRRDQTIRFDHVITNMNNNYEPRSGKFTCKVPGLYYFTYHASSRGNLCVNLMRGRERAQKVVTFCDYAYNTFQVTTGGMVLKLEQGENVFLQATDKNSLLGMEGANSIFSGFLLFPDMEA
T2 sequence (P02747 29-245 limits assumed, chain 3 of 3): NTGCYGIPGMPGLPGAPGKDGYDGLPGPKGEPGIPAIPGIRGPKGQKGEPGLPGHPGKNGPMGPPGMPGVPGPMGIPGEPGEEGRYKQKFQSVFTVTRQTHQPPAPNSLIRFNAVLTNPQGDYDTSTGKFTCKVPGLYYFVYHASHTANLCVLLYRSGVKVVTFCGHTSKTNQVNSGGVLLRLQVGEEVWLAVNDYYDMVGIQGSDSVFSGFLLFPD
As to the kind of experiment: BLI (Octet HTX), antibody on FAB2G biosensor, C1q in solution.
In turn, B1 gave a Kd of 36 nM.

With B2, the Kd was found to be 33 nM.

B3: the equilibrium dissociation constant (Kd) was found to be 16 nM.

For the molecule B4, the affinity, expressed as Kd, was 18 nM.

B5 gave a Kd of 40 nM.

B6 gave a Kd of 24 nM.

B7 gave a Kd of 17 nM.

As for B8, the affinity, expressed as Kd, was 18 nM.

For the molecule B9, the affinity, expressed as Kd, was 28 nM.

Molecule B10 returned a Kd of 18 nM.

For the molecule B11, the affinity, expressed as Kd, was 40 nM.

Molecule B12 gave a Kd of 30 nM.

For the molecule B13, the Kd is 40 nM.

A further assay deals with T1, FcγRIIa. As to the kind of experiment: BLI (Octet HTX), antibody on FAB2G biosensor, FcγRIIa in solution.
As to B1, the Kd came to 2460 nM.

Molecule B2 returned an equilibrium dissociation constant (Kd) of 2340 nM.

The molecule B14 registered a Kd of 1870 nM.

The molecule B3 yielded a Kd of 1620 nM.

For B15, the Kd worked out at 1380 nM.

Molecule B4 returned a Kd of 1970 nM.

Molecule B5 came in with a Kd of 2550 nM.

For B6, the Kd stood at 2120 nM.

B7 came in with a Kd of 1720 nM.

B8 registered a dissociation constant Kd of 1860 nM.

As for B9, the Kd turned out to be 2200 nM.

In turn, B16 yielded an equilibrium dissociation constant (Kd) of 1910 nM.

On to B10, for which the Kd came to 1630 nM.

In the case of B11, the affinity, expressed as Kd, was 1130 nM.

Take B12: the affinity, expressed as Kd, was 2040 nM.

As for B17, binding was characterised by a dissociation constant (Kd) of 1970 nM.

In turn, B13 returned a Kd of 1700 nM.

The target in another assay is T3, FcγRIIIa (UniProt P08637 17-208).
T3 construct: also called FcyRIIIa
T3 sequence (P08637 17-208 limits assumed): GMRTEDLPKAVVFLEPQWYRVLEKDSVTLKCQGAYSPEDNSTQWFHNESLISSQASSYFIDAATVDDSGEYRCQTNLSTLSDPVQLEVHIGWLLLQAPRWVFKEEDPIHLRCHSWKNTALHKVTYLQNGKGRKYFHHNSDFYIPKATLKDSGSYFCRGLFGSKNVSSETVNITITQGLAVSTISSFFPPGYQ
As to the kind of experiment: BLI (Octet HTX), antibody on FAB2G biosensor, FcγRIIIa in solution.
For the molecule B1, the Kd came out at 500 nM.

The molecule B2 registered an equilibrium dissociation constant (Kd) of 370 nM.

The molecule B3 came in with a Kd of 330 nM.

The molecule B15 gave a Kd of 300 nM.

Consider B4, for which binding was put at a Kd of 290 nM.

As to B5, the Kd was 360 nM.

Molecule B6 displayed an equilibrium dissociation constant (Kd) of 380 nM.

Take B7: the Kd was 290 nM.

The molecule B8 gave a Kd of 230 nM.

With B9, the Kd worked out at 340 nM.

B16 returned a Kd of 430 nM.

B10 came in with a Kd of 230 nM.

B11 displayed a Kd of 220 nM.

In turn, B12 yielded a Kd of 490 nM.

Molecule B17 displayed a Kd of 230 nM.

Turning to B13, the Kd is 420 nM.

For the next assay, the target named is T4, FcRn (UniProt P55899 24-297).
T4 construct: also called neonatal Fc receptor
T4 sequence (P55899 24-297 limits assumed, form in doubt): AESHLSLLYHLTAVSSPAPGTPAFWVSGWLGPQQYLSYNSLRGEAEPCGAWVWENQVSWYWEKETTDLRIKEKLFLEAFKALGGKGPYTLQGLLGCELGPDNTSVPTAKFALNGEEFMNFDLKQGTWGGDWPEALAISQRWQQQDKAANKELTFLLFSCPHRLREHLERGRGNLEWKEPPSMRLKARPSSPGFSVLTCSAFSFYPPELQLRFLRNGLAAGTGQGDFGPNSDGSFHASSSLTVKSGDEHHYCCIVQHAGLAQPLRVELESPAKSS
As to the kind of experiment: BLI (Octet HTX), antibody on FAB2G biosensor, FcRn in solution, pH 6.0.
In turn, B1 had a Kd of 730 nM.

The molecule B2 had a Kd of 650 nM.

With B14, the Kd turned out to be 680 nM.

For the molecule B3, binding was characterised by a dissociation constant (Kd) of 670 nM.

B15: the affinity, expressed as Kd, was 650 nM.

Take B4: the Kd is 690 nM.

Consider B6, for which the Kd was 580 nM.

The molecule B18 registered an equilibrium dissociation constant (Kd) of 680 nM.

In the case of B7, binding was characterised by a dissociation constant (Kd) of 740 nM.

Turning to B9, the Kd came out at 640 nM.

In turn, B16 registered a Kd of 710 nM.

Regarding B10, the Kd came out at 750 nM.

On to B12, for which binding was characterised by a dissociation constant (Kd) of 690 nM.

B17: binding was put at a Kd of 620 nM.

Turning to B13, the Kd came out at 710 nM.
